These results are taken from publication PMC10643903 (Journal of Innate Immunity, 2022).

As usually defined, the Kd is the free concentration of one partner at which half of the binding sites on the other are occupied at equilibrium, for simple one-to-one binding.

The target of one test is T1, dog C6 FIM1-2 fragment (Canis lupus familiaris).
T1 chain: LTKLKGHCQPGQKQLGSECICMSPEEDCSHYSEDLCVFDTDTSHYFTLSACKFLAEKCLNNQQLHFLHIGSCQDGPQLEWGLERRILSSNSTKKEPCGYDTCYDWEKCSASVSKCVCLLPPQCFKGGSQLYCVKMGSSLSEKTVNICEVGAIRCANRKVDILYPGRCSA
Kind of test: BLI. Background: In BLI a coated tip is dipped into the sample, and binding shifts an interference pattern.

Test [1] addresses pig (Sus scrofa) C6 FIM1-2 fragment (Sus scrofa, UniProt A0SEH0). Kind of test: BLI.
Test [2] concerns the target Macaca C6 FIM1-2 fragment (Macaca fascicularis (entry of printed …, UniProt A0A2K5W3S5)). Nature of the test: BLI.
The target of test [3] is human C6 FIM1-2 fragment (residues 766–934) with an N-terminal 10xHis-tag (human, UniProt P13671). Kind of test: BLI.
Test [4] addresses biotinylated AVI-tagged full-length human C6 (Homo sapiens, UniProt P13671, biotin on the AVI-tag (BirA ligase)). Nature of the test: BLI.
In test [5] the target is C6∆FIM1-2 (1–762) with a C-terminal His-tag (human, UniProt P13671). Nature of the test: SEC.
The target in test [6] is human C6 FIM1-2 fragment (residues 766–934) with an N-terminal 10xHis-tag (human, UniProt P13671 766-934). Kind of test: BLI.
Test [7] deals with recombinant full-length human C6 with a C-terminal 10xHis-tag (human, UniProt P13671 22-934). Kind of test: BLI.
Chain of recombinant full-length human C6 with a C-terminal 10xHis-tag (P13671 22-934): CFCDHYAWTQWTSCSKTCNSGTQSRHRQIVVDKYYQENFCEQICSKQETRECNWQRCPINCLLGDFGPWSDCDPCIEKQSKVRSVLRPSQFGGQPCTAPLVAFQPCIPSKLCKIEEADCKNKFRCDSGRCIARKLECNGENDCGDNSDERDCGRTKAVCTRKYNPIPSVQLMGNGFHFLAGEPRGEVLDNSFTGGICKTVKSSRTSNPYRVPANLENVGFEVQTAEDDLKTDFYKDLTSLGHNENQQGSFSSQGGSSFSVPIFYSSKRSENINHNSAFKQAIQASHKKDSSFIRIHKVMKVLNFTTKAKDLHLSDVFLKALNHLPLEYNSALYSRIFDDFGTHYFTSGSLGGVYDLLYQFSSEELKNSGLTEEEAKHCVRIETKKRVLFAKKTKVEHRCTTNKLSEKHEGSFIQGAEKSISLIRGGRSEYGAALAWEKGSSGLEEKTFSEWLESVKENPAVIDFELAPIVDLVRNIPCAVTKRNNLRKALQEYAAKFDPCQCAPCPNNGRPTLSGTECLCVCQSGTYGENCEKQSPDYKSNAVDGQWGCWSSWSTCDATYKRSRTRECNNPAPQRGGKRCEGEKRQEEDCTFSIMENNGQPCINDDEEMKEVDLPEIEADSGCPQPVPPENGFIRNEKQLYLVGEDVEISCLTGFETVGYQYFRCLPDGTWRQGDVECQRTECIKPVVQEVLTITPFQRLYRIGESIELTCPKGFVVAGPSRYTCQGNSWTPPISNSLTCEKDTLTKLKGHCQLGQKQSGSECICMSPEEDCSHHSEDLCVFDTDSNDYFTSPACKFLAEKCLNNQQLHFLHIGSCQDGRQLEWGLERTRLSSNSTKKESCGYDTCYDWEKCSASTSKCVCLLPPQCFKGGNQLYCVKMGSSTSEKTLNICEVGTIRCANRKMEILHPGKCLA

Chain of C6∆FIM1-2 (1–762) with a C-terminal His-tag (P13671 22-762): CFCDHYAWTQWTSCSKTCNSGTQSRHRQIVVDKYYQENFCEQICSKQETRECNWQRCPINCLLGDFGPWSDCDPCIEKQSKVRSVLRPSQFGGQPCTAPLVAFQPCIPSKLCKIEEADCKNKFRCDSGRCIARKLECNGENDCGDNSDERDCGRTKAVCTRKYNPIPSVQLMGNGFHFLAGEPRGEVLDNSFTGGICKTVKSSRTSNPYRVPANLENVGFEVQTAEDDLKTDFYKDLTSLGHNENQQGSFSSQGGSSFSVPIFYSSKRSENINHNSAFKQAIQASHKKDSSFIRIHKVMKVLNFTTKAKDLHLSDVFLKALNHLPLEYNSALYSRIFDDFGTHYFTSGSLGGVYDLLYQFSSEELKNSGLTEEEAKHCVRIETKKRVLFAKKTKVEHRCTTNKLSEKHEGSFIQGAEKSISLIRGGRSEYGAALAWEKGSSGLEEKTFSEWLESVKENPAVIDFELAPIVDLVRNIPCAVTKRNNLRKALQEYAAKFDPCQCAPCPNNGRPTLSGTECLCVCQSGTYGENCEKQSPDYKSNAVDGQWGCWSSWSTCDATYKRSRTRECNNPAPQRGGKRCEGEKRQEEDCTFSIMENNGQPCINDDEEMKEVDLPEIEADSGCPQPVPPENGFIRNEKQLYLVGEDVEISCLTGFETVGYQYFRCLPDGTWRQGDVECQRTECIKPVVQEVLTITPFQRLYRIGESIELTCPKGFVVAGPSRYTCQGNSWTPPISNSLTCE
Chain of biotinylated AVI-tagged full-length human C6 (P13671 22-934): as the sequence (P13671 22-934) above
Chain of human C6 FIM1-2 fragment (residues 766–934) with an N-terminal 10xHis-tag (human, UniProt P13671) (P13671 766-934): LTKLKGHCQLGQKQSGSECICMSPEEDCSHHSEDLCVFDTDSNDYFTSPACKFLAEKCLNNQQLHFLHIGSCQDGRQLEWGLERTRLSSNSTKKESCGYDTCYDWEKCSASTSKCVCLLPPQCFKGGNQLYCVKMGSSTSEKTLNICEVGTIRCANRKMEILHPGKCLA
Chain of human C6 FIM1-2 fragment (residues 766–934) with an N-terminal 10xHis-tag (human, UniProt P13671 766-934) (P13671 766-934): as above

B1: CP010 Fab (Fab, V domains shown)
VH: EVQLVESDGGLVQPGGSLKLSCAASGFTFSDYYMAWVRQGPGKGLEWVATINYDGSSTYYRESVKGRFTISRDNAKNTLYLQMNSLRAEDTATYYCARPSTEALFAYWGHGTLVTVSS
VL: DVVLTQTPSTLSVTPGQPASISCRSSQSLLNDVGNTYLYWYLQKPGQSPQLLIYLVSDLGSGVPNRFSGSGSGTDFTLKISRVEAEDVGIYYCMQASHAPYTFGQGTNLEIK
With B1, the Kd is about 5 nM with dog C6 FIM1-2 fragment; about 5 nM in test [1]; about 5 nM in test [2]; 2.8 nM in test [3]; 0.3 nM in test [4].

B2: CP010, fully humanized version of 7E5 with a human IgG4 S228P constant region (antibody, V domains shown)
VH: EVQLVESDGGLVQPGGSLKLSCAASGFTFSDYYMAWVRQGPGKGLEWVATINYDGSSTYYRESVKGRFTISRDNAKNTLYLQMNSLRAEDTATYYCARPSTEALFAYWGHGTLVTVSS
VL: DVVLTQTPSTLSVTPGQPASISCRSSQSLLNDVGNTYLYWYLQKPGQSPQLLIYLVSDLGSGVPNRFSGSGSGTDFTLKISRVEAEDVGIYYCMQASHAPYTFGQGTNLEIK
On to B2, for which the binding result in test [5] is recorded as “no binding”.

B3: human C5 C345c domain (residues 1528–1676) (domain or fragment, UniProt P01031 1528-1676, looked up)
chain: VEADCGQMQEELDLTISAETRKQTACKPEIAYAYKVSITSITVENVFVKYKATLLDIYKTGEAVAEKDSEITFIKKVTCTNAELVKGRQYLIMGKEALQIKYNFSFRYIYPLDSLTWIEYWPRDTTCSSCQAFLANLDEFAEDIFLNGC
For B3, the Kd in test [6] was 5 nM; in test [7], 10 to 20 nM.
